The values below come from publication PMC516168.

The target in the test is Mc-VHA-a fused to YFP (M. crystallinum). Description: FRET or BRET; in vivo FRET (CFP donor, YFP acceptor, fused to C-termini) in co-transformed A. thaliana mesophyll protoplasts; excitation 458 nm; acceptor photobleaching at 514 nm; confocal microscopy. For orientation: BRET reads energy transfer from a luciferase to a nearby fluorophore.

Regarding Mc-VHA-c fused to CFP (natural protein), the FRET efficiency was found to be 0.45.
